Source: IntAct's records for PubMed 29039417

B1: BBSome-interacting protein 1 (Homo sapiens), A8MTZ0 (parent)
chain: MLKAAAKRPELSGKNTISNNSDMAEVKSMFREVLPKQGPLFVEDIMTMVLCKPKLLPLKSLTLEKLEKMHQAAQNTIRQQEMAEKDQRQITH
partner: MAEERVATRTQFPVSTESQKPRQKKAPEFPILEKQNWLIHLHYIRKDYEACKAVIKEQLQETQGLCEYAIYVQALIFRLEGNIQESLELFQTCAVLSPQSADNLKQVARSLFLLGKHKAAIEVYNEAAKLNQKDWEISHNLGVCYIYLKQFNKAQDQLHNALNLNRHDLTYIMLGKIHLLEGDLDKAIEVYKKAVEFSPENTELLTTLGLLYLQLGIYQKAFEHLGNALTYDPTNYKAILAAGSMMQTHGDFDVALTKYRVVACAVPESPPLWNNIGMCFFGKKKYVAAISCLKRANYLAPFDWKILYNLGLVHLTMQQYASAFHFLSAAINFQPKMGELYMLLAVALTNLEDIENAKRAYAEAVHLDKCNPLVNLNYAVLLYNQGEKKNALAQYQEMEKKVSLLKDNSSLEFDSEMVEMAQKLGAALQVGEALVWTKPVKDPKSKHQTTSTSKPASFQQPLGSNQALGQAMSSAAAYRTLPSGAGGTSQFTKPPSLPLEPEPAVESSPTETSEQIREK

Variants of: B1
Settings: with bbs4_human BBS4, Q96RK4

Variant	effect of a mutation on the interaction
MLKAAAKRPELSGKNTISNNSDMAEVKSMFREVLPKQGPLFVEDIMTMVLCKPKLLPLKSLTLEKLEKMHQAAQNTIRQQAMAEKDQRQITH [E81A]	with no effect
MLKAAAKRPELSGKNTISNNSDMAEVKSMFREVLPKQGPLFVEDIMTMVLCKPKLLPLKSLTLEKLEKMHQAAQNTIRQQKMAEKDQRQITH [E81K]	with no effect
MLKAAAKRPELSGKNTISNNSDMAEVKSMFREVLPKQGPLFVEDIMTMVLCKPKLLPLKSLTLEKLEKMHKAAQNTIRQQEMAEKDQRQITH [Q71K]	with no effect
MLKAAAKRPELSGKNTISNNSDMAEVKSMFREVLPKQEPLFVEDIMTMVLCKPKLLPLKSLTLEKLEKMHQAAQNTIRQQEMAEKDQRQITH [G38E]	with no effect
MLKAAAKRPELSGKNTISNNSDMAEVKSMFREVLPKQGPLFAEDIMTMVLCKPKLLPLKSLTLEKLEKMHQAAQNTIRQQEMAEKDQRQITH [V42A]	with no effect
MLKAAAKRPELSGKNTISNNSDMAEVKSMFREVLPKQGPLFKEDIMTMVLCKPKLLPLKSLTLEKLEKMHQAAQNTIRQQEMAEKDQRQITH [V42K]	with no effect
MLKAAAKRPELSGKNTKSNNSDMAEVKSMFREVLPKQGPLFVEDIMTMVLCKPKLLPLKSLTLEKLEKMHQAAQNTIRQQEMAEKDQRQITH [I17K]	with no effect
MLKAAAKRPELSGKNTISNNSDEAEVKSMFREVLPKQGPLFVEDIMTMVLCKPKLLPLKSLTLEKLEKMHQAAQNTIRQQEMAEKDQRQITH [M23E]	with no effect
MLKAAAKRPELSGKNTISNNSDKAEVKSMFREVLPKQGPLFVEDIMTMVLCKPKLLPLKSLTLEKLEKMHQAAQNTIRQQEMAEKDQRQITH [M23K]	with no effect
MLKAAAKRPELSGKNTISNNSDMAEVKSMFREVLPKQGPLFVEDIMTMVLCKPKLLPLKSLTAEKLEKMHQAAQNTIRQQEMAEKDQRQITH [L63A]	with no effect
MLKAAAKRPELSGKNTISNNSDMAEVKSMFREVLPKQGPLFVEDIMTMVLCKPKLLPLKSLTEEKLEKMHQAAQNTIRQQEMAEKDQRQITH [L63E]	with no effect
MLKAAAKRPELSGKNTISNNSDMAEVKSMFREVLPKQGPLFVEDIMTAVLCKPKLLPLKSLTLEKLEKMHQAAQNTIRQQEMAEKDQRQITH [M48A]	with no effect
MLKAAAKRPELSGKNTISNNSDMAEVKSMFREVLPKQGPLFVEDIMTMKLCKPKLLPLKSLTLEKLEKMHQAAQNTIRQQEMAEKDQRQITH [V49K]	with no effect
MEKAAAKRPELSGKNTISNNSDMAEVKSMFREVLPKQGPLFVEDIMTMVLCKPKLLPLKSLTLEKLEKMHQAAQNTIRQQEMAEKDQRQITH [L2E]	with no effect
MKKAAAKRPELSGKNTISNNSDMAEVKSMFREVLPKQGPLFVEDIMTMVLCKPKLLPLKSLTLEKLEKMHQAAQNTIRQQEMAEKDQRQITH [L2K]	with no effect
MLKAAAKRPELSGKNTISNNSDMAEVKSMFREVLPKQGELFVEDIMTMVLCKPKLLPLKSLTLEKLEKMHQAAQNTIRQQEMAEKDQRQITH [P39E]	with no effect
MLKAAAKRPELSGKKTISNNSDMAEVKSMFREVLPKQGPLFVEDIMTMVLCKPKLLPLKSLTLEKLEKMHQAAQNTIRQQEMAEKDQRQITH [N15K]	with no effect
MLKAAAKRPELSGKNTISNNSDMAEVKSMFREVLPKKGPLFVEDIMTMVLCKPKLLPLKSLTLEKLEKMHQAAQNTIRQQEMAEKDQRQITH [Q37K]	with no effect
MLKAAAKRPELSGKNTISNNSDMAEVKSMFREVLPKQGPLFVKDIMTMVLCKPKLLPLKSLTLEKLEKMHQAAQNTIRQQEMAEKDQRQITH [E43K]	with no effect
MLKAAAKRPELSGKNTISNNSDMAEVKSMFREVLPKQGPLFVADIMTMVLCKPKLLPLKSLTLEKLEKMHQAAQNTIRQQEMAEKDQRQITH [E43A]	with no effect
MLKAAAKRPELSGKNTISNNSDMAEVKSMFREVLPKQGPLFVEDIMTMVLEKPKLLPLKSLTLEKLEKMHQAAQNTIRQQEMAEKDQRQITH [C51E]	with no effect
MLKAAAKRPELSGKNTISNNSDMAEVKSMFREVLPKQGPLFVEDIFTMVLCKPKLLPLKSLTLEKLEKMHQAAQNTIRQQEMAEKDQRQITH [M46F]	disrupting interaction strength
MLKAAAKRPELSGKNTISNNSDMAEVKSMFREVLTKQGPLFVEDIMTMVLCKPKLLPLKSLTLEKLEKMHQAAQNTIRQQEMAEKDQRQITH [P35T]	disrupting interaction strength
MLKAAAKRPKLSGKNTISNNSDMAEVKSMFREVLPKQGPLFVEDIMTMVLCKPKLLPLKSLTLEKLEKMHQAAQNTIRQQEMAEKDQRQITH [E10K]	with no effect
MLKAAAKRPELSGKNTISKNSDMAEVKSMFREVLPKQGPLFVEDIMTMVLCKPKLLPLKSLTLEKLEKMHQAAQNTIRQQEMAEKDQRQITH [N19K]	with no effect
MLKAAAKRPELSGKNTISENSDMAEVKSMFREVLPKQGPLFVEDIMTMVLCKPKLLPLKSLTLEKLEKMHQAAQNTIRQQEMAEKDQRQITH [N19E]	with no effect
MLKAAAKRPELSGKNTISNNSDMAEVKSMEREVLPKQGPLFVEDIMTMVLCKPKLLPLKSLTLEKLEKMHQAAQNTIRQQEMAEKDQRQITH [F30E]	with no effect

Variant	effect of a mutation on the interaction
MLKAAAKRPELSGKNTISNNSDMAEVKSMSREVLPKQGPLFVEDIMTMVLCKPKLLPLKSLTLEKLEKMHQAAQNTIRQQEMAEKDQRQITH [F30S]	disrupting interaction strength
MLKAAAKRPELSGKNTISNNSDMAEVKSMFREVLPKQGPLFVEDIMTMVLCKPKLLPLKSKTLEKLEKMHQAAQNTIRQQEMAEKDQRQITH [L61K]	with no effect
MLKAAAKRPELSGKNTISNNSDMAEVKSMFREVLPKQGPLFVEDIMTMVLCKPKLLPLKSLELEKLEKMHQAAQNTIRQQEMAEKDQRQITH [T62E]	with no effect
MLKAAAKRPELSGKNTISNNSDMAEVKSMFREVLPKQGPLFVEDIMTMVLCKPKLLPLKSLALEKLEKMHQAAQNTIRQQEMAEKDQRQITH [T62A]	with no effect
MLKAAAKRPELSGKNTISNNSDMAEVKSMFREVLPKQGPLFVEDIMTMVLCKPKLLPLKSLTLEKLEKMHQAAQNTIKQQEMAEKDQRQITH [R78K]	with no effect
MLKAAAKRPELSGKNTISNNSDMAEVKSMFREVLPKQGPLFVEDIMTMVLCKPKLLRLKSLTLEKLEKMHQAAQNTIRQQEMAEKDQRQITH [P57R]	disrupting interaction strength
MLKAAAKRPELSGKNTISNNSDMAAVKSMFREVLPKQGPLFVEDIMTMVLCKPKLLPLKSLTLEKLEKMHQAAQNTIRQQEMAEKDQRQITH [E25A]	with no effect
MLKAAAKRPELSGKNTISNNSDMAEVKSMFREVLPKQGPLAVEDIMTMVLCKPKLLPLKSLTLEKLEKMHQAAQNTIRQQEMAEKDQRQITH [F41A]	with no effect
MLKAAAKRPELSGKNTISNNSDMAEVKSMFREVLPKQGPLFVEDIMTMVLCKPKLLPLKSLTLEKLEKMHQAAQKTIRQQEMAEKDQRQITH [N75K]	with no effect
MLKAAAKRPELSGKNTISNNSDMAEVKSMFREVLPKQGPLFVEDIMTMVLCKPKLLPLKSLTLEKLEKKHQAAQNTIRQQEMAEKDQRQITH [M69K]	with no effect
MLKAAAKRPELSGKNTISNNSDMAEVKSMFREVLPKQGPLFVEDIMTMVLCKPKLLPLKSLTLEKLEKAHQAAQNTIRQQEMAEKDQRQITH [M69A]	with no effect
MLKAAAKRPELSGKNTISNNSDMAEVKSMFREVLPKQGPLFVEDIMEMVLCKPKLLPLKSLTLEKLEKMHQAAQNTIRQQEMAEKDQRQITH [T47E]	with no effect
MLKAAAKRPELSGKNTISNNSDMAEVKSMFREVLPKQGPLFVEDIMTMVLCKPKLLPLKSLTLEKLEKMHQAAQNTIRQQEMAEKDQRAITH [Q89A]	with no effect
MLKAAAKRPELKGKNTISNNSDMAEVKSMFREVLPKQGPLFVEDIMTMVLCKPKLLPLKSLTLEKLEKMHQAAQNTIRQQEMAEKDQRQITH [S12K]	with no effect
MLKAAAKRPELSGKNTISNNSDMAEVKSMFREVPPKQGPLFVEDIMTMVLCKPKLLPLKSLTLEKLEKMHQAAQNTIRQQEMAEKDQRQITH [L34P]	disrupting interaction strength
MLKAAAKRPELSGKNTISNNSDMAEVKSMFREVLPKQGPLFVEDIMTMVLCKPKLLPLKSLTLEKLEKMHQAAQNTIRQQEMAEKDQRQIAH [T91A]	with no effect
MLKAAAKRPELSGKNTISNNSDMAEVKSMFREVLPKQGPLFVEDIMTMVLCKPKKLPLKSLTLEKLEKMHQAAQNTIRQQEMAEKDQRQITH [L55K]	with no effect
MLKAAAKRPELSGKNTISNNSDMAEVKEMFREVLPKQGPLFVEDIMTMVLCKPKLLPLKSLTLEKLEKMHQAAQNTIRQQEMAEKDQRQITH [S28E]	with no effect
MLKAAAKRPELSGKNTISNNSDMAEVKAMFREVLPKQGPLFVEDIMTMVLCKPKLLPLKSLTLEKLEKMHQAAQNTIRQQEMAEKDQRQITH [S28A]	with no effect
MLKAAAKRPELSGKNTISNNSDMAEVKSMFREVLPKQGPLFVEDIMTMVLCKPKLLPLKSLTLEKLEKMHQAAQNTIRQQEMAEKDQRQITA [H92A]	with no effect
MLKAAAKRPELSGKNTISNNSDMAEVKSMFREVLPKQGPLFVEDIMTMVLCKPKLLPLKSLTLEKLEKMHQAAQNTIRQQEMAEKDQRQITK [H92K]	with no effect
MLKAAAKRPELSGKNTISNNSDMAEVKSMFREVLPKQGPLFVEDIMTMVLCKPKLLPLKSLTLEKLEKMHQAAANTIRQQEMAEKDQRQITH [Q74A]	with no effect
MLKAAAKRPELSGKNTISNNSDMAEVKSMFREVLPKQGPLFVEDIMTMVLCKPKLLPLKSLTLEKLEKMHQAAQNTERQQEMAEKDQRQITH [I77E]	with no effect
MLKAAAKRPELSGKNTISNNSDMAEVKSMFREVLPKQGPLFVEDIMTMVLCKPKLLPLKSLTLEKLEKMHQAAQNTARQQEMAEKDQRQITH [I77A]	with no effect
MLKAAAKRPELSGKNTISNNSDMAEVKSMFREVLPKQGPLFVEDIMTMVLCKPKLLPLKSLTLEKLEKMHQAAQNTIRQQEMEEKDQRQITH [A83E]	with no effect
MLKAAAKRPELSGKNTISNNSDMAEVKSMFREVLPKQGPLFVEDIMTMVLCKPKLLPKKSLTLEKLEKMHQAAQNTIRQQEMAEKDQRQITH [L58K]	with no effect
